Where two headings read alike, the source gives them in different places.
Tests used:
[1] = biological target: T1, tumor necrosis factor alpha (TNFα) (human, UniProt P01375 77-233); assay: affinity by IC50 ELISA (so named in paragraph 380)
[2] = biological target: T1, tumor necrosis factor alpha (TNFα); assay: affinity by IC50 ELISA (so named in paragraph 380); remark: listed apart in the source
[3] = biological target: T1, tumor necrosis factor alpha (TNFα); assay: cell-based or functional assay
[4] = biological target: T1, tumor necrosis factor alpha (TNFα); assay: affinity by IC50 ELISA (so named in paragraph 380); remark: listed apart in the source
[5] = biological target: T1, tumor necrosis factor alpha (TNFα); assay: affinity by IC50 ELISA (so named in paragraph 380); remark: listed apart in the source
[6] = biological target: T1, tumor necrosis factor alpha (TNFα); assay: affinity by IC50 ELISA (so named in paragraph 380); remark: listed apart in the source
[7] = biological target: T1, tumor necrosis factor alpha (TNFα); assay: affinity by IC50 ELISA (so named in paragraph 380); remark: listed apart in the source

T1 sequence (P01375 77-233 limits assumed): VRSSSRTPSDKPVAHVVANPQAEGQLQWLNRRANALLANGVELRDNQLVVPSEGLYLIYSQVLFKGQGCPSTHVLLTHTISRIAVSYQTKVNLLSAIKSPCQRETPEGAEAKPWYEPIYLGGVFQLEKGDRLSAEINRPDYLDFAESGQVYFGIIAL

Binder	Affinity [1]	Affinity [2]	IC50, TNFα cytotoxicity assay (WEHI-13VAR cells) [3]	Affinity [4]	Affinity [5]	Affinity [6]	Affinity [7]
MAb 812 (antibody, V domains shown, IgG1/kappa, CHO; also called H1192/L308) VH: EVQLLESGGGLIQPGGSLRLSCAASGFTVSSNYMSWVRQAPGKGLEWVSVIYSGGRTYYADSVKGRFTISRDSSKNTLYLQMNSLRAEDTAVYYCARNYYGSTYDYWGQGTLVTVSS VL: EIVLTQSPVTLSVPPGERASLSCRASQNIYTAVAWYQQKPGQAPRLLIYGASTRATGIPARFSGGGSGTDYTLTISSLESEDFAVYHCQQYFSWPLTFGGGTKLEIK	0.32 nM	0.32 nM	–	–	–	–	–
MAb 813 (antibody, V domains shown, IgG1/kappa, CHO; also called H1192/L309) VH: EVQLLESGGGLIQPGGSLRLSCAASGFTVSSNYMSWVRQAPGKGLEWVSVIYSGGRTYYADSVKGRFTISRDSSKNTLYLQMNSLRAEDTAVYYCARNYYGSTYDYWGQGTLVTVSS VL: EIVLTQSPVTLSVPPGERASLSCRASQNIYTAVAWYQQKPGQAPRLLIYGASTRATGIPARFSGGGSGTDYTLTISSLESEDFAVYHCQQYMSWPLTFGGGTKLEIK	0.42 nM	0.42 nM	–	–	–	–	–
MAb 815 (antibody, V domains shown, IgG1/kappa, CHO; also called H1192/L311) VH: EVQLLESGGGLIQPGGSLRLSCAASGFTVSSNYMSWVRQAPGKGLEWVSVIYSGGRTYYADSVKGRFTISRDSSKNTLYLQMNSLRAEDTAVYYCARNYYGSTYDYWGQGTLVTVSS VL: EIVLTQSPVTLSVPPGERASLSCRASQNIYTAVAWYQQKPGQAPRLLIYGASTRATGIPARFSGGGSGTDYTLTISSLESEDFAVYHCQQYHAWPLTFGGGTKLEIK	0.36 nM	0.36 nM	–	–	–	–	–
MAb 855 (antibody, V domains shown, IgG1/kappa, CHO; also called H1192/L332) VH: EVQLLESGGGLIQPGGSLRLSCAASGFTVSSNYMSWVRQAPGKGLEWVSVIYSGGRTYYADSVKGRFTISRDSSKNTLYLQMNSLRAEDTAVYYCARNYYGSTYDYWGQGTLVTVSS VL: EIVLTQSPVTLSVPPGERASLSCRASQNIYTAVAWYQQKPGQAPRLLIYGASTRATGIPARFSGGGSGTDYTLTISSLESEDFAVYHCQQWHSWPLTFGGGTKLEIK	0.25 nM	0.25 nM	3.5 nM	–	–	–	–
MAb 1043 (antibody, V domains shown, IgG1/kappa, CHO; also called H1483/L332) VH: EVQLLESGGGLIQPGGSLRLSCAASGFTVSSNYMSWVRQAPGKGLEWVSVIYSGGRTYYADSVKGRFTISRDSSKNTLYLQMNSLRAEDTAVYYCARNYYGSTMDYWGQGTLVTVSS VL: EIVLTQSPVTLSVPPGERASLSCRASQNIYTAVAWYQQKPGQAPRLLIYGASTRATGIPARFSGGGSGTDYTLTISSLESEDFAVYHCQQWHSWPLTFGGGTKLEIK	–	0.31 nM	–	0.31 nM	–	–	–
MAb 1067 (antibody, V domains shown, IgG1/kappa, CHO; also called H1487/L332) VH: EVQLLESGGGLIQPGGSLRLSCAASGFTVSSNYMSWVRQAPGKGLEWVSVIYSGGRTYYADSVKGRFTISRDSSKNTLYLQMNSLRAEDTAVYYCARNYYGSTLDYWGQGTLVTVSS VL: EIVLTQSPVTLSVPPGERASLSCRASQNIYTAVAWYQQKPGQAPRLLIYGASTRATGIPARFSGGGSGTDYTLTISSLESEDFAVYHCQQWHSWPLTFGGGTKLEIK	–	0.12 nM	–	0.12 nM	–	–	–
MAb 1131 (antibody, V domains shown, IgG1/kappa, CHO; also called H1518/L332) VH: EVQLLESGGGLIQPGGSLRLSCAASGFTVSSNYMSWVRQAPGKGLEWVSVIYSGGRTYYADSVKGRFTISRDSSKNTLYLQMNSLRAEDTAVYYCARNYYGSTHDYWGQGTLVTVSS VL: EIVLTQSPVTLSVPPGERASLSCRASQNIYTAVAWYQQKPGQAPRLLIYGASTRATGIPARFSGGGSGTDYTLTISSLESEDFAVYHCQQWHSWPLTFGGGTKLEIK	–	0.13 nM	–	0.13 nM	–	–	–
MAb 1210 (antibody, V domains shown, IgG1/kappa, CHO; also called H1557/L332) VH: EVQLLESGGGLIQPGGSLRLSCAASGFTVSSNYMSWVRQAPGKGLEWVSVIYSGGRTYYADSVKGRFTISRDSSKNTLYLQMNSLRAEDTAVYYCARNYYGSTVDYWGQGTLVTVSS VL: EIVLTQSPVTLSVPPGERASLSCRASQNIYTAVAWYQQKPGQAPRLLIYGASTRATGIPARFSGGGSGTDYTLTISSLESEDFAVYHCQQWHSWPLTFGGGTKLEIK	–	0.14 nM	–	0.14 nM	–	–	–
MAb 1850 (antibody, V domains shown, IgG1/kappa, CHO; also called H1727/L332) VH: EVQLLESGGGLIQPGGSLRLSCAASGFTVGNNYMSWVRQAPGKGLEWVSVIYSAGSTYYADSVKGRFIISRDNSKDTVYLQMNSLRVDDTAVYYCARNYYGSTHDYWGQGTLVTVSS VL: EIVLTQSPVTLSVPPGERASLSCRASQNIYTAVAWYQQKPGQAPRLLIYGASTRATGIPARFSGGGSGTDYTLTISSLESEDFAVYHCQQWHSWPLTFGGGTKLEIK	–	0.59 nM	–	–	0.59 nM	–	–
MAb 1851 (antibody, V domains shown, IgG1/kappa, CHO; also called H1728/L332) VH: EVQLLESGGGLIQPGGSLRLSCAASGFTVGNNYMSWVRQAPGKGLEWVSVIYSAGSTYYADSVKGRFIISRDNSKDTVYLQMNSLRVDDTAVYYCARNYYGSTFDYWGQGTLVTVSS VL: EIVLTQSPVTLSVPPGERASLSCRASQNIYTAVAWYQQKPGQAPRLLIYGASTRATGIPARFSGGGSGTDYTLTISSLESEDFAVYHCQQWHSWPLTFGGGTKLEIK	–	0.26 nM	–	–	0.26 nM	–	–
MAb 1852 (antibody, V domains shown, IgG1/kappa, CHO; also called H1729/L332) VH: EVQLLESGGGLIQPGGSLRLSCAASGFTVGNNYMSWVRQAPGKGLEWVSVIYSAGSTYYADSVKGRFIISRDNSKDTVYLQMNSLRVDDTAVYYCARNYYGSTLDYWGQGTLVTVSS VL: EIVLTQSPVTLSVPPGERASLSCRASQNIYTAVAWYQQKPGQAPRLLIYGASTRATGIPARFSGGGSGTDYTLTISSLESEDFAVYHCQQWHSWPLTFGGGTKLEIK	–	0.41 nM	–	–	0.41 nM	–	–
MAb 1714 (antibody, V domains shown, IgG1/kappa, CHO; also called H1678/L332) VH: EVQLVESGGGLIQPGGSLRLSCAVSGLNVSRDYMSWVRQAPGKGLEWISVIYRGGATMYADSVKGRFTISRDTSKNTVFLQMSRLKVADTAVYYCARNYYGSTFDYWGQGTLVTVSS VL: EIVLTQSPVTLSVPPGERASLSCRASQNIYTAVAWYQQKPGQAPRLLIYGASTRATGIPARFSGGGSGTDYTLTISSLESEDFAVYHCQQWHSWPLTFGGGTKLEIK	–	0.16 nM	1.3 nM	–	–	0.16 nM	–
MAb 1775 (antibody, V domains shown, IgG1/kappa, CHO; also called H1687/L332) VH: EVQLVESGGGLIQPGGSLRLSCAVSGLNVSRDYMSWVRQAPGKGLEWISVIYRGGATMYADSVKGRFTISRDTSKNTVFLQMSRLKVADTAVYYCARNYYGSTMDYWGQGTLVTVSS VL: EIVLTQSPVTLSVPPGERASLSCRASQNIYTAVAWYQQKPGQAPRLLIYGASTRATGIPARFSGGGSGTDYTLTISSLESEDFAVYHCQQWHSWPLTFGGGTKLEIK	–	0.22 nM	6.5 nM	–	–	0.22 nM	–
MAb 1777 (antibody, V domains shown, IgG1/kappa, CHO; also called H1684/L332) VH: EVQLVESGGGLIQPGGSLRLSCAVSGLNVSRDYMSWVRQAPGKGLEWISVIYRGGATMYADSVKGRFTISRDTSKNTVFLQMSRLKVADTAVYYCARNYYGSTIDYWGQGTLVTVSS VL: EIVLTQSPVTLSVPPGERASLSCRASQNIYTAVAWYQQKPGQAPRLLIYGASTRATGIPARFSGGGSGTDYTLTISSLESEDFAVYHCQQWHSWPLTFGGGTKLEIK	–	0.18 nM	7 nM	–	–	0.18 nM	–
MAb 1988 (antibody, V domains shown, IgG1/kappa, CHO; also called H1813/L459) VH: EVQLVESGGGLIQPGGSLRLSCAVSGLNVSRDYMSWVRQAPGKGLEWISVIYRIGATMYADSVKGRFTISRDTSKNTVFLQMSRLKVADTAVYYCARNYYGSTLDYWGQGTLVTVSS VL: EIVLTQSPVTLSVPPGERASLSCRASQNIYTAVAWYQQKPGQAPRLLIYNASTRATGIPARFSGGGSGTDYTLTISSLESEDFAVYHCQQWHSWPLTFGGGTKLEIK	–	0.04 nM	0.2 nM	–	–	–	0.04 nM
MAb 1989 (antibody, V domains shown, IgG1/kappa, CHO; also called H1814/L459) VH: EVQLVESGGGLIQPGGSLRLSCAVSGLNVSRDYMSWVRQAPGKGLEWISVIYRVGATMYADSVKGRFTISRDTSKNTVFLQMSRLKVADTAVYYCARNYYGSTLDYWGQGTLVTVSS VL: EIVLTQSPVTLSVPPGERASLSCRASQNIYTAVAWYQQKPGQAPRLLIYNASTRATGIPARFSGGGSGTDYTLTISSLESEDFAVYHCQQWHSWPLTFGGGTKLEIK	–	0.05 nM	0.2 nM	–	–	–	0.05 nM
MAb 1999 (antibody, V domains shown, IgG1/kappa, CHO; also called H1824/L459) VH: EVQLVESGGGLIQPGGSLRLSCAVSGLNVSRDYMSWVRQAPGKGLEWISVIYRGGITMYADSVKGRFTISRDTSKNTVFLQMSRLKVADTAVYYCARNYYGSTLDYWGQGTLVTVSS VL: EIVLTQSPVTLSVPPGERASLSCRASQNIYTAVAWYQQKPGQAPRLLIYNASTRATGIPARFSGGGSGTDYTLTISSLESEDFAVYHCQQWHSWPLTFGGGTKLEIK	–	0.04 nM	0.3 nM	–	–	–	0.04 nM
MAb 2006 (antibody, V domains shown, IgG1/kappa, CHO; also called H1831/L459) VH: EVQLVESGGGLIQPGGSLRLSCAVSGLNVSRDYMSWVRQAPGKGLEWISVIYRGGATHYADSVKGRFTISRDTSKNTVFLQMSRLKVADTAVYYCARNYYGSTLDYWGQGTLVTVSS VL: EIVLTQSPVTLSVPPGERASLSCRASQNIYTAVAWYQQKPGQAPRLLIYNASTRATGIPARFSGGGSGTDYTLTISSLESEDFAVYHCQQWHSWPLTFGGGTKLEIK	–	0.04 nM	0.3 nM	–	–	–	0.04 nM
MAb 2019 (antibody, V domains shown, IgG1/kappa, CHO; also called H1844/L459) VH: EVQLVESGGGLIQPGGSLRLSCAVSGLNVSRDYMSWVRQAPGKGLEWISVIYRGGVTMYADSVKGRFTISRDTSKNTVFLQMSRLKVADTAVYYCARNYYGSTLDYWGQGTLVTVSS VL: EIVLTQSPVTLSVPPGERASLSCRASQNIYTAVAWYQQKPGQAPRLLIYNASTRATGIPARFSGGGSGTDYTLTISSLESEDFAVYHCQQWHSWPLTFGGGTKLEIK	–	0.04 nM	0.3 nM	–	–	–	0.04 nM
